Consider one molecule from publication PMC7896311, “Structure of the SARS-CoV-2 RNA-dependent RNA polymerase in the presence of favipiravir-RTP”.

The series concerns the target nsp12 (RNA-dependent RNA polymerase);nsp7;nsp8 (SARS-CoV-2;SARS-CoV-2;SARS-CoV-2, UniProt P0DTD1;P0DTD1;P0DTD1 4393-5324;3860-3942;3943-4140, ||). Kind of series: cryo-EM structure (2.5 A). The note with it: protein: recombinant;recombinant;recombinant; tags: C-terminal TEV site-double StrepII on the nsp5-nsp7-nsp8-nsp12 polyprotein;;; copies: 1;1;2.

B1: primer:template RNA duplex (dsRNA)
RNA 1: CAGUGCUAUGUGAGAUUAAGUUAU
RNA 2: UUUUUCAUAACUUAAUCUCACAUAGCACUG
With B1, the binding result was “binds”.
